Patent US20250250357A1 (NANJING ZAIMING PHARMACEUTICAL, published 2025)

Legend:
[1] = biological target: T1, human MSLN-hFc protein (Acro, Cat. No. MSN-H5253) (human, UniProt Q13421 296-580); experiment: ELISA, coated human MSLN-hFc, antibody 0.0001 nM
T1 construct: bought protein; also called human MSLN full-length protein; not shown: human Fc (hFc) of the bought protein

[2] = biological target: T1, human MSLN-hFc protein (Acro, Cat. No. …); experiment: ELISA, coated human MSLN-hFc, antibody 100 nM
[3] = biological target: T1, human MSLN-hFc protein (Acro, Cat. No. …); experiment: ELISA, coated human MSLN-hFc, antibody 10 nM
[4] = biological target: T1, human MSLN-hFc protein (Acro, Cat. No. …); experiment: ELISA, coated human MSLN-hFc, antibody 1 nM
[5] = biological target: T1, human MSLN-hFc protein (Acro, Cat. No. …); experiment: ELISA, coated human MSLN-hFc, antibody 0.001 nM
[6] = biological target: T1, human MSLN-hFc protein (Acro, Cat. No. …); experiment: ELISA, coated human MSLN-hFc, antibody 0.01 nM
[7] = biological target: T1, human MSLN-hFc protein (Acro, Cat. No. …); experiment: ELISA, coated human MSLN-hFc, antibody 0.1 nM
[8] = biological target: T1, human MSLN-hFc protein (Acro, Cat. No. …); experiment: ELISA, coated human MSLN-hFc, antibody 100 nM; remark: listed apart in the source
[9] = biological target: T1, human MSLN-hFc protein (Acro, Cat. No. …); experiment: ELISA, coated human MSLN-hFc, antibody 10 nM; remark: listed apart in the source
[10] = biological target: T1, human MSLN-hFc protein (Acro, Cat. No. …); experiment: ELISA, coated human MSLN-hFc, antibody 0.0001 nM; remark: listed apart in the source
[11] = biological target: T1, human MSLN-hFc protein (Acro, Cat. No. …); experiment: ELISA, coated human MSLN-hFc, antibody 1 nM; remark: listed apart in the source
[12] = biological target: T1, human MSLN-hFc protein (Acro, Cat. No. …); experiment: ELISA, coated human MSLN-hFc, antibody 0.01 nM; remark: listed apart in the source
[13] = biological target: T1, human MSLN-hFc protein (Acro, Cat. No. …); experiment: ELISA, coated human MSLN-hFc, antibody 0.1 nM; remark: listed apart in the source
[14] = biological target: T1, human MSLN-hFc protein (Acro, Cat. No. …); experiment: ELISA, coated human MSLN-hFc, antibody 0.001 nM; remark: listed apart in the source

T1 sequence (Q13421 other isoform, or with tags, fused parts or gaps limits assumed): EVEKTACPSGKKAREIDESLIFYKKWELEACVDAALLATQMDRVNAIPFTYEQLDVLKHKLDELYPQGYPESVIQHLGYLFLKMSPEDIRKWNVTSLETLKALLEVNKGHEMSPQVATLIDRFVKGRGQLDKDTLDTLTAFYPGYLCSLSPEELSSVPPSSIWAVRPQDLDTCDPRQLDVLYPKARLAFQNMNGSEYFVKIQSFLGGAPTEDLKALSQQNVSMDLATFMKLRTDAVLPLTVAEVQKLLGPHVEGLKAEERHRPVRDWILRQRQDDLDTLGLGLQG

OD450 nm [1]	OD450 nm [2]	OD450 nm [3]	OD450 nm [4]	OD450 nm [5]	OD450 nm [6]	OD450 nm [7]	OD450 nm [8]	OD450 nm [9]	OD450 nm [10]	OD450 nm [11]	OD450 nm [12]	OD450 nm [13]	OD450 nm [14]	Binder
0.06	1.68	1.23	0.55	0.06	0.07	0.17								F2.39.3-H1 (scFv, not shown: small tags and cut ends, expressed as VH-(G4S)3-VL-his or VL-(G4S)3-VH-his; also called S009-F2.39.3 humanized VH1 + VL1) scFv: EVQLVQSGAEVKKPGASVKVSCKASGYTFTNYWMHWVRQAPGQGLEWMGNINPSSGDSYYNERFMSRVTMTVDKSTSTVYMELSSLRSEDTAVYYCARSGGLWLAFWGQGTLVTVSSGGGGSGGGGSGGGGSDIVMTQSPDSLAVSLGERATINCKSSQTLLNSVSQNNYLAWYQQKPGQSPKLLIYFASTRESGVPDRFSGSGSGTDFTLTISSLQAEDVAVYYCQQHYRTPYTFGGGTKVEIK
0.06	1.69	1.18	0.31	0.06	0.07	0.1								F2.39.3-H6 (scFv, not shown: small tags and cut ends, also called S009-F2.39.3 humanized VH2 + VL2) scFv: EVQLVQSGAEVKKPGASVKVSCKASGYTFTNYWMHWVRQAPGQGLEWMGNINPSSGDSYYNERFMSRVTMTVDKSTSTAYMELSSLRSEDTAVYYCARSGGLWLAFWGQGTLVTVSSGGGGSGGGGSGGGGSDIVMTQSPDSLAVSLGERATINCKSSQTLLNSVSQNNYLAWYQQKPGQSPTLLIYFASTRESGVPDRFSGSGSGTDFTLTISSLQAEDVAVYYCQQHYRTPYTFGGGTKVEIK
							1.22	0.62	0.05	0.17	0.07	0.09	0.07	F2.23.12-H8 (scFv, not shown: small tags and cut ends, also called S009-F2.23.12 humanized VH2 + VL4) scFv: EVQLVQSGAEVKKPGASVKVSCKASGYTFTNYWMHWVRQAPGQGLEWMGNINPSNGGPYYNERFRSRVTMTVDKSTSTAYMELSSLRSEDTAVYYCARPYYGSSYGYFDYWGQGTTVTVSSGGGGSGGGGSGGGGSDIQMTQSPSSLSASVGDRVTITCKASQDINKYIAWYQHKPGKAPKLLIHYTSELQPGVPSRFSGSGSGRDYTFTISSLQPEDIATYYCLQYANPLRTFGGGTKVEIK
							1.2	0.64	0.05	0.13	0.06	0.07	0.07	F2.23.12-H16 (scFv, not shown: small tags and cut ends, also called S009-F2.23.12 humanized VH4 + VL4) scFv: EVQLVQSGAEVKKPGASVKVSCKASGYTFTNYWMHWVRQAPGQGLEWMGNINPSQGGPYYNERFRSRVTMTVDKSTSTAYMELSSLRSEDTAVYYCARPYYGSSYGYFDYWGQGTTVTVSSGGGGSGGGGSGGGGSDIQMTQSPSSLSASVGDRVTITCKASQDINKYIAWYQHKPGKAPKLLIHYTSELQPGVPSRFSGSGSGRDYTFTISSLQPEDIATYYCLQYANPLRTFGGGTKVEIK
							1.22	0.92	0.07	0.57	0.09	0.18	0.08	F2.23.12-H4 (scFv, not shown: small tags and cut ends, also called S009-F2.23.12 humanized VH1 + VL4) scFv: EVQLVQSGAEVKKPGASVKVSCKASGYTFTNYWMHWVRQAPGQGLEWMGNINPSNGGPYYNERFRSRVTMTVDKSTSTVYMELSSLRSEDTAVYYCARPYYGSSYGYFDYWGQGTTVTVSSGGGGSGGGGSGGGGSDIQMTQSPSSLSASVGDRVTITCKASQDINKYIAWYQHKPGKAPKLLIHYTSELQPGVPSRFSGSGSGRDYTFTISSLQPEDIATYYCLQYANPLRTFGGGTKVEIK

The remaining lines, values behind:

Binder	OD450 nm [1]	OD450 nm [2]	OD450 nm [3]	OD450 nm [4]	OD450 nm [5]	OD450 nm [6]	OD450 nm [7]	OD450 nm [8]	OD450 nm [9]	OD450 nm [10]	OD450 nm [11]	OD450 nm [12]	OD450 nm [13]	OD450 nm [14]
F2.39.3-H8 (scFv, not shown: small tags and cut ends, also called S009-F2.39.3 humanized VH2 + VL4) scFv: EVQLVQSGAEVKKPGASVKVSCKASGYTFTNYWMHWVRQAPGQGLEWMGNINPSSGDSYYNERFMSRVTMTVDKSTSTAYMELSSLRSEDTAVYYCARSGGLWLAFWGQGTLVTVSSGGGGSGGGGSGGGGSDIVMTQTPLSLSVTPGQPASISCKSSQTLLNSVSQNNYLAWYQQKPGQSPTLLVYFASTRESGVPDRFSGSGSGTDFTLKISRVEAEDVGVYYCQQHYRTPYTFGGGTKVEIK	0.05	1.95	1.17	0.31	0.06	0.06	0.1							
F2.39.3-H2 (scFv, not shown: small tags and cut ends, also called S009-F2.39.3 humanized VH1 + VL2) scFv: EVQLVQSGAEVKKPGASVKVSCKASGYTFTNYWMHWVRQAPGQGLEWMGNINPSSGDSYYNERFMSRVTMTVDKSTSTVYMELSSLRSEDTAVYYCARSGGLWLAFWGQGTLVTVSSGGGGSGGGGSGGGGSDIVMTQSPDSLAVSLGERATINCKSSQTLLNSVSQNNYLAWYQQKPGQSPTLLIYFASTRESGVPDRFSGSGSGTDFTLTISSLQAEDVAVYYCQQHYRTPYTFGGGTKVEIK	0.06	1.82	1.19	0.3	0.06	0.06	0.1							
F2.39.3-H9 (scFv, not shown: small tags and cut ends, also called S009-F2.39.3 humanized VH3 + VL1) scFv: EVQLVQSGAEVKKPGASVKVSCKASGYTFTNYWMHWVRQAPGQGLEWMGNINPSSGDSYYNERFMSRVTMTVDKSTSTAYMELSSLRSEDTAVYYCARSGGLWLAFWGPGTLVTVSSGGGGSGGGGSGGGGSDIVMTQSPDSLAVSLGERATINCKSSQTLLNSVSQNNYLAWYQQKPGQSPKLLIYFASTRESGVPDRFSGSGSGTDFTLTISSLQAEDVAVYYCQQHYRTPYTFGGGTKVEIK	0.05	1.81	1.22	0.39	0.06	0.06	0.11							
F2.23.12-H5 (scFv, not shown: small tags and cut ends, also called S009-F2.23.12 humanized VH2 + VL1) scFv: EVQLVQSGAEVKKPGASVKVSCKASGYTFTNYWMHWVRQAPGQGLEWMGNINPSNGGPYYNERFRSRVTMTVDKSTSTAYMELSSLRSEDTAVYYCARPYYGSSYGYFDYWGQGTTVTVSSGGGGSGGGGSGGGGSDIQMTQSPSSLSASVGDRVTITCKASQDINKYIAWYQQKPGKAPKLLIHYTSELQPGVPSRFSGSGSGTDFTFTISSLQPEDIATYYCLQYANPLRTFGGGTKVEIK								1.37	0.83	0.06	0.22	0.07	0.09	0.06
F2.23.12-H1 (scFv, not shown: small tags and cut ends, also called S009-F2.23.12 humanized VH1 + VL1) scFv: EVQLVQSGAEVKKPGASVKVSCKASGYTFTNYWMHWVRQAPGQGLEWMGNINPSNGGPYYNERFRSRVTMTVDKSTSTVYMELSSLRSEDTAVYYCARPYYGSSYGYFDYWGQGTTVTVSSGGGGSGGGGSGGGGSDIQMTQSPSSLSASVGDRVTITCKASQDINKYIAWYQQKPGKAPKLLIHYTSELQPGVPSRFSGSGSGTDFTFTISSLQPEDIATYYCLQYANPLRTFGGGTKVEIK								1.22	0.82	0.07	0.26	0.07	0.09	0.06
F2.23.12-H13 (scFv, not shown: small tags and cut ends, also called S009-F2.23.12 humanized VH4 + VL1) scFv: EVQLVQSGAEVKKPGASVKVSCKASGYTFTNYWMHWVRQAPGQGLEWMGNINPSQGGPYYNERFRSRVTMTVDKSTSTAYMELSSLRSEDTAVYYCARPYYGSSYGYFDYWGQGTTVTVSSGGGGSGGGGSGGGGSDIQMTQSPSSLSASVGDRVTITCKASQDINKYIAWYQQKPGKAPKLLIHYTSELQPGVPSRFSGSGSGTDFTFTISSLQPEDIATYYCLQYANPLRTFGGGTKVEIK								1.38	0.73	0.05	0.16	0.07	0.08	0.07
